Source: US20160340422A1 (published 2016)

Assays:
Mouse IL-17A = biological target: T1, Mouse IL-17A (mouse, UniProt Q62386 26-158); assay: ELISA
T1 chain: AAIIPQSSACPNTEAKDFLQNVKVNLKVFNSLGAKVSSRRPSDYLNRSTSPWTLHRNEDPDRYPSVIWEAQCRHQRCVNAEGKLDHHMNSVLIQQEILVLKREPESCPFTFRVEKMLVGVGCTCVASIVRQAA

Human IL-17A = Human IL-17A (human, UniProt Q16552 24-155); assay: ELISA
Sequence of Human IL-17A (Q16552 24-155): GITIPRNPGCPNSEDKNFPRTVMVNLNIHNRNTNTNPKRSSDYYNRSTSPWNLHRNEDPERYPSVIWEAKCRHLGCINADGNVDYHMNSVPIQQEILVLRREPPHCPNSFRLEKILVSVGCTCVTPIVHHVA

B1: Control antibody A (antibody, V domains shown)
VH: QVQLKESGPGLVQPSQTLSLTCTVSGFSLTNYYVHWVRQPPGKGLEWMGGVWNDGDTSYNSVLRSRLSITRDTSKSQVLLKMSSLQTEDTATYYCAREGREGFVGYYVMDAWGPGASVTVSS
VL: DIQMTQSPSFLSASVGERVTLSCKASQNINKYLDWFQQKLGEAPKLLIYNADNLHTGIPSRFSGSGSFSDFILTISSLQPEDDATYFCLQRESWPYTFGAGTKLELKR
EC50 (Mouse IL-17A): 0.088 nM | EC50 (Human IL-17A): 0.088 nM
